Residue numbers refer to the chain shown, from its start. Numbers in names are those of the source.
Target: laminin isolated from Engelbreth-Holm-Swarm murine sarcoma basement membrane
Assay: ELISA
Conditions: chain shown with the change; 20 µg protein per well; laminin 0.5 µg per well; parent: est. 3.1; read off a plot

B1: wild-type full-length (C24-P237) pallilysin, O83732 H198A (protein)
chain: CFQHGHVPPRRIPPHDTFGALPTAALPSNARDTAAHPSDTADNTSGSSTTTDPRSHGNAPPAPVGGAAQTHTQPPVQTAMRIALWNRATHGEQGALQHLLAGLWIQTEISPNSGDIHPLLFFDREHAEITFSRASVQEIFLVDSAHTHRKTVSFLTRNTAISSIRRRLEVTFESAEVIHVRAVEDVARLKIGSTSMWDGQYTRYHAGPASAPSP
Question: B1 was tested. Which response (O.D. (492 nm)) did it give?
Answer: 3.1

B2: wild-type full-length (C24-P237) pallilysin, O83732 E199A (protein)
chain: B1 chain with A175H, E176A
Question: For B2, which response (O.D. (492 nm)) is on record?
Answer: 3.3

B3: wild-type full-length (C24-P237) pallilysin, O83732 H202A (protein)
chain: B1 chain with A175H, H179A
Question: B3 was tested. Which response (O.D. (492 nm)) did it give?
Answer: 3

Source: article PMC3406077 (2012)
